Experimental data from paper PMC5603801.

Biological target: PnpM-His6 (C-terminal His-tagged PnpM, LysR-type transcriptional regulator of Pseudomonas sp. strain WBC-3) (Pseudomonas sp. strain WBC-3)
Assay: SEC; analytical gel filtration of PnpM-His6 on Hiload Superdex 200 pg (1.6 x 60 cm); 10 mM Tris-HCl pH 7.5, 0.1 M NaCl, 5% glycerol; 0.5 ml/min; buffer with or without PNP; native mass from a calibration curve of standard proteins

## PnpM-His6 (C-terminal His-tagged PnpM, LysR-type transcriptional regulator of Pseudomonas sp. strain WBC-3) (natural protein)
  stoichiometry N: 4
